Stoichiometry N data for one substance are collected here from paper PMC3628942.

For the assay, the target named is Bombyx mori lipoprotein 3 (Bombyx mori) (UniProt Q00802). Briefly: crystal structure; crystal form Bmlp3-c2, space group C2, two molecules in the asymmetric unit; grown in 2.0 M ammonium sulfate, 0.1 M ammonium iodide, pH 5.5, 20°C; an iodide anion lies in the centre of the dimer interface.

Take “Bombyx mori lipoprotein 3 (from UniProt Q00802 18-256) (natural protein)”: the stoichiometry N stood at 2.
